Test results: patent US20250129355A1

B1: gRAMP-CHAT(H615A/C658A)-crRNA complex (enzyme, part only; not given: gRAMP, His tag, crRNA)
chain, part: MSNPIRDIQDRLKTAKFDNKDDMMNLASSLYKYEKQLMDSSEATLCQQGLSNRPNSFSQLSQFRDSDIQSKAGGQTGKFWQNEYEACKNFQTHKERRETLEQIIRFLQNGAEEKDADDLLLKTLARAYFHRGLLYRPKGFSVPARKVEAMKKAIAYCEIILDKNEEESEALRIWLYAAMELRRCGEEYPENFAEKLFYLANDGFISELYDIRLFLEYTEREEDNNFLDMILQENQDRERLFELCLYKARACFHLNQLNDVRIYGESAIDNAPGAFADPFWDELVEFIRMLRNKKSELWKEIAIKAWDKCREKEMKVGNNIYLSWYWARQRELYDLAFMAQDGIEKKTRIADSLKSRTTLRIQELNELRKDAHRKQNRRLEDKLDRIIEQENEARDGAYLRRNPPCFTGGKREEIPFARLPQNWIAVHFYLNELESHEGGKGGHALIYDPQKAEKDQWQDKSFDYKELHRKFLEWQENYILNEEGSADFLVTLCREIEKAMPFLFKSEVIPEDRPVLWIPHGFLHRLPLHAAMKSGNNSNIEIFWERHASRYLPAWHLFDPAPYSREESSTLLKNFEEYDFQNLENGEIEVYAPSSPKKVKEAIRENPAILLLLCAGEADMTNPFRSCLKLKNKDMTIFDLLTVEDVRLSGSRILLGAAESDMVPPLEFSVDEHLSVSGAFLSHKAGEIVAGLWTVDSEKVDECYSYLVEEKDFLRNLQEWQMAETENFRSENDSSLFYKIAPFRIIGFPAE

How the values were obtained:
[1] = test system: T1, Upstream protein 1 (Up1) from Desulfonema ishimotonii
T1 sequence: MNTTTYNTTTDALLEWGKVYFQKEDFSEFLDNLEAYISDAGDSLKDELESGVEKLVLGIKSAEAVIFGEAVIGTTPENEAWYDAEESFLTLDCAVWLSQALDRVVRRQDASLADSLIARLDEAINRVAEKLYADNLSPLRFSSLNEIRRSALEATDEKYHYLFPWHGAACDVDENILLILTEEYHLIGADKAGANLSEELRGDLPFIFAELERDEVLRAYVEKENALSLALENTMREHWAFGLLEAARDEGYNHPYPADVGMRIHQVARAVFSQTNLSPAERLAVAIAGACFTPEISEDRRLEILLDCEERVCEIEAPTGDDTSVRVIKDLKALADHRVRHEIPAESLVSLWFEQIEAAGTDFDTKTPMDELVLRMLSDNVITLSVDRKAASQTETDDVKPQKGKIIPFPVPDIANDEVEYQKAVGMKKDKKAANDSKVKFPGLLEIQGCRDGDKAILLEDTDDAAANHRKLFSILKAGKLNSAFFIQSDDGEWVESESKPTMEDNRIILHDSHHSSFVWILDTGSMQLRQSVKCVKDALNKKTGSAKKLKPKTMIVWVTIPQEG

[2] = test system: Up1 fragment residues 396-565
[3] = test system: Up1 fragment amino acids 296-565
[4] = test system: Up1 single alanine substitution mutants
[5] = test system: TwinStrep-Up1Δloop mutant
[6] = target: Up1 fused to an 3×HA epitope tag (expressed from a plasmid in HEK293T cells) (Desulfonema ishimotonii); assay: cell-based or functional assay

| Molecule | Up1 cleavage in vitro (SDS-PAGE) [1] | cleavage of truncated Up1 in vitro (SDS-PAGE) [2] | cleavage of truncated Up1 [3] | cleavage of Up1 within the Up1-Up3 complex (SDS-PAGE) (Up1-Up3 complex) | proteolytic cleavage of Up1 in the purified Up1-Up3 complex (SDS-PAGE, Coomassie) (Up1-Up3 complex) | cleavage of the protein substrate in vitro (SDS-PAGE) [1] | substrate turnover in vitro [1] | Up1 cleavage in vitro (western blot) (Up1 with D430 deleted) | gRAMP-CHAT mediated protein cleavage of alanine mutants [4] | Up1 cleavage in vitro (western blot) [5] | Up1 cleavage in vitro (western blot) (Up1 with M427 deleted) | efficiency of Up1 cleavage in HEK293T cells across a panel of endogenous transcripts [6] [%] |
| --- | --- | --- | --- | --- | --- | --- | --- | --- | --- | --- | --- | --- |
| gRAMP(D429A/D654A)-CHAT-crRNA complex | disrupting the catalytic sites of gRAMP (D429A/D654A) did not |  |  |  |  |  |  |  |  |  |  |  |
| gRAMP-CHAT-crRNA complex from Desulfonema ishimotonii | the largest protein, Up1, is specifically cleaved in response to target RNA | Up1 fragments containing residues 396-565 were fully active in vitro | Smaller versions of Up1 containing amino acids 296-565 retained full activity for processing | an Up1-Up3 complex which could be cleaved by gRAMP-CHAT in the presence of target RNA | only in the lane with gRAMP-CHAT (+) and target RNA (+) the Up1 band becomes weaker and two new bands appear, at about 50 kDa and just above 15 kDa; much Up1 stays uncleaved; the Up3 band at 25 kDa is unchanged; no new bands without gRAMP-CHAT or with gRAMP-CHAT but without target RNA | the substrate is neighboring protein WP_124327587.1 (FIG. 2), that cleavage of the substrate is dependent on presence of a target RNA | cleaving 100-fold excess of Up1 substrate in minutes | the deletion of D430 had no effect | No single alanine mutation blocks CHAT protease activity | truncating the loop by four residues, or deleting M427 alone, prevented in vitro cleavage | truncating the loop by four residues, or deleting M427 alone, prevented in vitro cleavage | 3 to 22 |
| B1 | mutating the catalytic residues of the CHAT protease (H615A/C658A) abolished activity |  |  |  |  |  |  |  |  |  |  |  |
